Laboratory results reported in US20250352661A1 (MYTHIC THERAPEUTICS, published 2025).

T1: Human LRRC15 Protein, His Tag (Acro Biosystems) (human, UniProt Q8TF66 22-538, limits assumed)
T1 construct: not shown: His tag
T1 sequence (looked up): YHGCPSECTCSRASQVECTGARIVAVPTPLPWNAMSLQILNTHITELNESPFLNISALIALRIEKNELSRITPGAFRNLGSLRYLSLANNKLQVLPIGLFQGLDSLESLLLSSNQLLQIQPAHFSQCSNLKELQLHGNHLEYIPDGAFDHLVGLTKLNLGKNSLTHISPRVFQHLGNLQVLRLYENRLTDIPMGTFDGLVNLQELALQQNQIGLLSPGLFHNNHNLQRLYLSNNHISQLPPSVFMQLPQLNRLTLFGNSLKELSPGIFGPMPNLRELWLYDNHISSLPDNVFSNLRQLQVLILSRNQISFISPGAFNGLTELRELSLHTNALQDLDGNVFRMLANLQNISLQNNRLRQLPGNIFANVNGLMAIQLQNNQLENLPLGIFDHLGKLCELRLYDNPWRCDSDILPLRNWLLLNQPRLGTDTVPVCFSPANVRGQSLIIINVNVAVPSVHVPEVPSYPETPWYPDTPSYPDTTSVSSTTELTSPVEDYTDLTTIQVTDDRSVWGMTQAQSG

T2: LRRC15 on LRRC15 positive cell lines SAOS2 and G292 (UniProt Q8TF66 22-581, limits assumed)
T2 construct: whole, on cells
T2 sequence (looked up): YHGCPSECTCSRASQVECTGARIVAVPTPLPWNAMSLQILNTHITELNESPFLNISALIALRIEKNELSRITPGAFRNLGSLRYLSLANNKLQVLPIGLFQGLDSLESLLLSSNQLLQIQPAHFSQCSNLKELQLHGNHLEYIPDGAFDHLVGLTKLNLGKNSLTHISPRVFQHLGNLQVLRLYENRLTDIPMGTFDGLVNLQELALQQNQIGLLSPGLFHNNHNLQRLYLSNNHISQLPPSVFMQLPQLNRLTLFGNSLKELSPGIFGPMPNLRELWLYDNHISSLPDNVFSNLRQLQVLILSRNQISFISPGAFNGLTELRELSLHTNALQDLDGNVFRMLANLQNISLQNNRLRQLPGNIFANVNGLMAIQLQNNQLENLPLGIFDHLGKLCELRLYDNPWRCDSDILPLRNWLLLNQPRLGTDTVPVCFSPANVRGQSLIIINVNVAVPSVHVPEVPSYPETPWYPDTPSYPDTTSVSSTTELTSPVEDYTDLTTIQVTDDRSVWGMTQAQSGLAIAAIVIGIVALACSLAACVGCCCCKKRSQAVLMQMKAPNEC

T3: LRRC15 on the surface of LRRC15+ cells (SAOS-2, U87MG) (UniProt Q8TF66 22-581, limits assumed)
T3 sequence (looked up): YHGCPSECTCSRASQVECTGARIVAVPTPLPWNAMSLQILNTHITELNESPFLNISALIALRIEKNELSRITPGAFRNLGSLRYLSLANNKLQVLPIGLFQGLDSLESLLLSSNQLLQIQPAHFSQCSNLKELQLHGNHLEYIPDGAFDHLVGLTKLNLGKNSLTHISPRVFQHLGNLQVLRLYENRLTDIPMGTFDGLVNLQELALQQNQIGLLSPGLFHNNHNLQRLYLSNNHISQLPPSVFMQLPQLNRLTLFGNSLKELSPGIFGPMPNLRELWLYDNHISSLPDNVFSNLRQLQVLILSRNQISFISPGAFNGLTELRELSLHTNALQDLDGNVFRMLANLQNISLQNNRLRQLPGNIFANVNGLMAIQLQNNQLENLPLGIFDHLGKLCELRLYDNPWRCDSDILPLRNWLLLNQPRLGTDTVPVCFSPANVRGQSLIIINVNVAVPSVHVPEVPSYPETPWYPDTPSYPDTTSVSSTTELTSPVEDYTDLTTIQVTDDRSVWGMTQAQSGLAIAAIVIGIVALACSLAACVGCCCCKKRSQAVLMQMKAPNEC


How the values were obtained:
[1] = target: T1, Human LRRC15 Protein, His Tag (Acro …); assay: BLI (Octet), Ab on anti-human Fc sensor, LRRC15 associated at pH 7.4
Protocol: For each individual plot, antigen binding proteins were captured on anti-human Fc biosensors and associated with LRRC15 at pH 7.4. Dissociation was at pH 7.4 (black) or pH 5.4 (grey). Major X-axis ticks=100 seconds, with left dashed vertical line=0 seconds. Major Y-axis ticks=0.5 nm and octet plots are shown MYT5712 and MYT6080-MYT6121.
After allowing for a period of protein expression, cell culture supernatants are collected, quantified, and the pH dependence of the variant is evaluated using biolayer interferometry (BLI) or other methods known to the art. Briefly, cell culture supernatants are normalized to an antibody expression level of 50 μg/mL, and captured on an anti-human Fc sensor (Forte Bio). A baseline is established using 1× kinetics buffer (Forte Bio), and the sensor is associated with 100 nM of LRRC15 in 1×PBS at pH 7.4 for 300 sec to generate an association curve. In the dissociation phase, the antibody-antigen complex on the sensor is exposed to 1×PBS at either pH 5.5 or pH 7.4 for 300-500 sec. […]

[2] = target: T2, LRRC15 on LRRC15 positive cell lines …; assay: cell binding on SAOS2 cells (LRRC15 positive), pH 7.4; parameters: unit not given here
[3] = target: T2, LRRC15 on LRRC15 positive cell lines …; assay: cell binding on G292 cells (LRRC15 positive), pH 7.4; parameters: unit not given here
[4] = target: T2, LRRC15 on LRRC15 positive cell lines …; assay: cell binding on G292 cells (LRRC15 positive), pH 6.4
[5] = target: T2, LRRC15 on LRRC15 positive cell lines …; assay: cell binding on SAOS2 cells (LRRC15 positive), pH 6.4
[6] = target: T1, Human LRRC15 Protein, His Tag (Acro …); assay: BLI; dissociation pH 7.4 black, pH 5.4 grey [2/2); D00020 FIG. 4B (2/2]
Protocol: Desirable mutations were transferred to a humanized framework (humanized, MYT 8387-8411). After allowing for four days of protein expression, cell culture supernatants were collected, quantified by SDS-PAGE analysis, and the pH dependence of the variant was evaluated using biolayer interferometry (BLI) on an Octet RED 96e instrument. Briefly, cell culture supernatants were diluted based on qualitative expression level of the variant determined by visual examination of SDS-PAGE gels, 5 μL of cell culture supernatant was diluted into 195 μL of 1×PBST, pH 7.4 for high expressors, 25 μL of cell culture supernatant was diluted into 175 μL of 1×PBST, pH 7.4 for medium expressors and 100 μL of cell culture supernatant was diluted into 100 μL of 1×PBST, pH 7.4 for low expressors for loading onto the sensor tips. The resulting diluted supernatants were then captured on an anti-human Fc sensor (Forte Bio). A baseline was established using 1×PBST (50 mM Potassium Phosphate Buffer+150 mM NaCl+0.05% Tween 20) pH 7.4, and the […] was associated with 50 nM of LRRC15 (Human LRRC15 Protein, His Tag, Acro Biosystems) in 1×PBST pH 7.4 for 120 sec to generate an association curve. In the dissociation phase, the antibody-antigen complex on the sensor was exposed to 1×PBST pH 7.4 or pH 5.4, for 300 sec. Association and dissociation phase curves were examined for the starting ABPC antibody (with no substitutions) and each corresponding antibody variant at pH 5.4 and pH 7.4 to inform on two criteria: a) enhanced dissociation (i.e., higher koff values) at pH 5.4 due to histidine substitution compared to the starting ABPC, (with no substitutions), and b) reduced dissociation at pH 7.4 (i.e., lower koff values) compared to pH 5.4 in the antibody variant itself and with the starting ABPC (with no substitutions).
The methods of Examples 9-10 were applied to RabMAb clone 29F1 (rabbit VH SEQ ID NO: 572 and VL SEQ ID NO: 578; and humanized VH SEQ ID NO: 576 and VL SEQ ID NO: 582).

[7] = target: T3, LRRC15 on the surface of LRRC15+ cells …; assay: cell-based or functional assay

Binder	Affinity [2]	Affinity [3]	Affinity [4]	Affinity [5]	binding result [6]	also measured
MYT8511 (antibody, V domains shown, Rabbit 24D9 VH combination variant; also called 24D9 VH combo F27H, S28H, I52H) VH: QQQLVESGGGLVKPGASLTLTCKASGHHFSGSYWICWVRQAPGKGLEWIGCHNGGSLDITYYASWAKGRFTISKASSTTVTLQKTSLTAADTATYFCASDTSYTAYGNFYFNLWGPGTLVTVSS VL: AQVLTQTASPVSAAVGGTVTINCQSSQSVLNNNWLAWYQQKPGQPPKLLIYDASSLASGVPSRFKGSGSGTQFTLTISDLESDDAATYYCQGEFSCGSADCNAFGGGTEVVVKG						binding result [1]: no binding (tested: 50 nM)
MYT3315 (antibody, V domains shown, also called hu139.10 LC His Variant; hu139.10 LC His Var) VH: EVQLVESGGGLVQPGGSLRLSCAVSGFSLTSYGVHWVRQATGKGLEWLGVIWAGGSTNYNSALMSRLTISKENAKSSVYLQMNSLRAGDTAMYYCATHMITEDYYGMDYWGQGTTVTVSS VL: DIVMTQSPDSLAVSLGERATINCKSSQSLLNSRTRKNYLAWYQQKPGQSPKLLIYWASTRHSGVPDRFSGSGSGTDFTLTISSLQAEDVAVYYCKQSYNLPTFGGGTKVEIK	0.296	0.155	0.251	0.398		
MYT9496 (antibody, V domains shown, also called hu29F1 VH P102D) VH: EVQLVESGGGLVQPGGSLRLSCTASGFSFSSSHWICWVRQAPGKGLEWVGCIYAGSIGSTYYASWAKGRFTISRDTSKNTVYLQMNSLRAEDTAVYYCARADNDIYNYYFNLWGQGTLVTVSS VL: EIVMTQSPSTLSASVGDRVIITCQASENIYNYLAWYQQKPGKAPKLLIYYASTLASGVPSRFSGSGSGAEFTLTISSLQPDDFATYYCQSGYVSKSSTFGQGTKLTVL					binds	
MYT9498 (antibody, V domains shown, also called hu29F1 VH D104A) VH: EVQLVESGGGLVQPGGSLRLSCTASGFSFSSSHWICWVRQAPGKGLEWVGCIYAGSIGSTYYASWAKGRFTISRDTSKNTVYLQMNSLRAEDTAVYYCARAPNAIYNYYFNLWGQGTLVTVSS VL: EIVMTQSPSTLSASVGDRVIITCQASENIYNYLAWYQQKPGKAPKLLIYYASTLASGVPSRFSGSGSGAEFTLTISSLQPDDFATYYCQSGYVSKSSTFGQGTKLTVL					binds	
MYT9505 (antibody, V domains shown, also called hu29F1 VH N111D) VH: EVQLVESGGGLVQPGGSLRLSCTASGFSFSSSHWICWVRQAPGKGLEWVGCIYAGSIGSTYYASWAKGRFTISRDTSKNTVYLQMNSLRAEDTAVYYCARAPNDIYNYYFDLWGQGTLVTVSS VL: EIVMTQSPSTLSASVGDRVIITCQASENIYNYLAWYQQKPGKAPKLLIYYASTLASGVPSRFSGSGSGAEFTLTISSLQPDDFATYYCQSGYVSKSSTFGQGTKLTVL					binds	
MYT9506 (antibody, V domains shown, also called hu29F1 VH L112D) VH: EVQLVESGGGLVQPGGSLRLSCTASGFSFSSSHWICWVRQAPGKGLEWVGCIYAGSIGSTYYASWAKGRFTISRDTSKNTVYLQMNSLRAEDTAVYYCARAPNDIYNYYFNDWGQGTLVTVSS VL: EIVMTQSPSTLSASVGDRVIITCQASENIYNYLAWYQQKPGKAPKLLIYYASTLASGVPSRFSGSGSGAEFTLTISSLQPDDFATYYCQSGYVSKSSTFGQGTKLTVL					binds	
Samrotamab V205C ADC (antibody, part only; not given: V205C light chain and payload, V domains shown, part only) VH: EVQLVQSGAEVKKPGASVKVSCKASGYKFSSYWIEWVKQAPGQGLEWIGEILPGSDTTNYNEKFKDRATFTSDTSINTAYMELSRLRSDDTAVYYCARDRGNYRAWFGYWGQGTLVTVSS						20 nM Efficacy (cytotoxicity of candidates against SAOS-2 cells) [7]: 16.4
MYT5438, samrotamab ADC, Hinge Conjugated, DAR 2.0 (antibody, V domains shown, ADC: payload conjugated at the hinge, DAR 2.0 (payload not given) ; ADC: payload conjugated at hinge cysteines, DAR 2.0. The letters do not carry it., also called Sam; ADC, Hinge (DAR 2.0); Samrotamab WT) VH: EVQLVQSGAEVKKPGASVKVSCKASGYKFSSYWIEWVKQAPGQGLEWIGEILPGSDTTNYNEKFKDRATFTSDTSINTAYMELSRLRSDDTAVYYCARDRGNYRAWFGYWGQGTLVTVSS VL: DIQMTQSPSSLSASVGDRVTITCRASQDISNYLNWYQQKPGGAVKFLIYYTSRLHSGVPSRFSGSGSGTDYTLTISSLQPEDFATYFCQQGEALPWTFGGGTKVEIK	0.31	0.165	0.187	0.336		
MYT2737 (antibody, V domains shown, also called Sam; LC His Variant; samrotamab LC His Var) VH: EVQLVQSGAEVKKPGASVKVSCKASGYKFSSYWIEWVKQAPGQGLEWIGEILPGSDTTNYNEKFKDRATFTSDTSINTAYMELSRLRSDDTAVYYCARDRGNYRAWFGYWGQGTLVTVSS VL: DIQMTQSPSSLSASVGDRVTITCRASQDISNYLNWYQQKPGGAVKFLIYHTSRLHSGVPSRFSGSGSGTDYTLTISSLQPEDFATYFCQQGEALPWTFGGGTKVEIK	0.84	0.528	0.676	0.92		
